The text below walks through data of US20150232544A1.

One test has as its target eTau2 (UniProt P10636). Briefly: relative binding affinity, method not named; eTau 2.
The target of a further test is eTau1b (UniProt P10636). Kind of test: relative binding affinity, method not named; eTau 1b.

Sequence of UniProt P10636 (P10636 other isoform, or with tags, fused parts or gaps): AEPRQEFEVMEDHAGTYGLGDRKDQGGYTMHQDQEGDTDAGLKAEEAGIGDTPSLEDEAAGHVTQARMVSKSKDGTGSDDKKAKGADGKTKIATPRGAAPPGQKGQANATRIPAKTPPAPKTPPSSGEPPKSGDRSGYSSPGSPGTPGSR

B1: humanized IPN002 variant VH1/Vk2 (antibody, V domains shown)
VH: EVHLVESGGALVKPGGSLRLSCAASGFSFSKYGMSWVRQAPGKGLEWVATISSSGSRTYYPDSVKGRFTISRDNAKNTLYLQMSSLKSEDTAMYYCSISWDGAMDYWGQGTSVTVSS
VL: DVVMTQSPLSLPVTLGQPASISCKSSQSIVHSNGNTYLEWYLQKPGQSPQLLVYKVSNRFSGVPDRFSGSGSGTDFTLKISRVEAEDVGTYYCFQGSLVPWAFGGGTKVEIK
As for B1, the Kd in the test with eTau2 is 361 pM; with eTau1b, 558 pM.

B2: humanized IPN002 variant VH4/Vk1 (antibody, V domains shown)
VH: EVQLVESGGALVKPGGSLRLSCAASGFSFSKYGMSWVRQAPGKGLEWVATISSSGSRTYYPDSVKGRFTISRDNAKNTLYLQMNSLRAEDTAMYYCAISWDGAMDYWGQGTTVTVSS
VL: DVLMTQSPLSLPVTLGQPASISCKSSQSIVHSNGNTYLEWYLQKPGQSPQLLVYKVSNRFSGVPDRFSGSGSGTDFTLKISRVEAEDVGTYYCFQGSLVPWAFGGGTKVEIK
Regarding B2, the figures for the dissociation constant (Kd) with eTau2 and with eTau1b were 405 pM and 359 pM, respectively.

B3: humanized IPN002 variant VH3/Vk1 (antibody, V domains shown)
VH: EVQLVESGGALVKPGGSLRLSCAASGFSFSKYGMSWVRQAPGKGLEWVATISSSGSRTYYPDSVKGRFTISRDNAKNTLYLQMNSLRAEDTAMYYCSISWDGAMDYWGQGTTVTVSS
VL: DVLMTQSPLSLPVTLGQPASISCKSSQSIVHSNGNTYLEWYLQKPGQSPQLLVYKVSNRFSGVPDRFSGSGSGTDFTLKISRVEAEDVGTYYCFQGSLVPWAFGGGTKVEIK
Turning to B3, the equilibrium dissociation constant (Kd) with eTau2 was 705 pM; with eTau1b it was 529 pM.

B4: humanized IPN002 variant VH1/Vk4 (antibody, V domains shown)
VH: EVHLVESGGALVKPGGSLRLSCAASGFSFSKYGMSWVRQAPGKGLEWVATISSSGSRTYYPDSVKGRFTISRDNAKNTLYLQMSSLKSEDTAMYYCSISWDGAMDYWGQGTSVTVSS
VL: DVVMTQSPLSLPVTLGQPASISCKSSQSIVHSNGNTYLEWYLQKPGQSPQLLIYKVSNRFSGVPDRFSGSGSGTDFTLKISRVEAEDVGVYYCFQGSLVPWAFGGGTKVEIK
Consider B4, for which the Kd came out at 427 pM with eTau2 and 597 pM in the test with eTau1b.

B5: humanized IPN002 variant VH1/Vk1 (antibody, V domains shown)
VH: EVHLVESGGALVKPGGSLRLSCAASGFSFSKYGMSWVRQAPGKGLEWVATISSSGSRTYYPDSVKGRFTISRDNAKNTLYLQMSSLKSEDTAMYYCSISWDGAMDYWGQGTSVTVSS
VL: DVLMTQSPLSLPVTLGQPASISCKSSQSIVHSNGNTYLEWYLQKPGQSPQLLVYKVSNRFSGVPDRFSGSGSGTDFTLKISRVEAEDVGTYYCFQGSLVPWAFGGGTKVEIK
For B5, the dissociation constant (Kd) with eTau2 came to 465 pM; in the test with eTau1b, 737 pM.

B6: humanized IPN002 variant VH4/Vk2 (antibody, V domains shown)
VH: EVQLVESGGALVKPGGSLRLSCAASGFSFSKYGMSWVRQAPGKGLEWVATISSSGSRTYYPDSVKGRFTISRDNAKNTLYLQMNSLRAEDTAMYYCAISWDGAMDYWGQGTTVTVSS
VL: DVVMTQSPLSLPVTLGQPASISCKSSQSIVHSNGNTYLEWYLQKPGQSPQLLVYKVSNRFSGVPDRFSGSGSGTDFTLKISRVEAEDVGTYYCFQGSLVPWAFGGGTKVEIK
Regarding B6, the figures for the dissociation constant Kd with eTau2 and with eTau1b were 451 pM and 483 pM, respectively.

B7: humanized IPN002 variant VH2/Vk3 (antibody, V domains shown)
VH: EVHLVESGGALVKPGGSLRLSCAASGFSFSKYGMSWVRQAPGKGLEWVATISSSGSRTYYPDSVKGRFTISRDNAKNTLYLQMNSLRAEDTAMYYCSISWDGAMDYWGQGTTVTVSS
VL: DVVMTQSPLSLPVTLGQPASISCKSSQSIVHSNGNTYLEWYLQKPGQSPQLLVYKVSNRFSGVPDRFSGSGSGTDFTLKISRVEAEDVGVYYCFQGSLVPWAFGGGTKVEIK
On to B7, for which the values for the Kd with eTau2 and with eTau1b were 261 pM and 287 pM, respectively.

B8: humanized IPN002 variant VH3/Vk4 (antibody, V domains shown)
VH: EVQLVESGGALVKPGGSLRLSCAASGFSFSKYGMSWVRQAPGKGLEWVATISSSGSRTYYPDSVKGRFTISRDNAKNTLYLQMNSLRAEDTAMYYCSISWDGAMDYWGQGTTVTVSS
VL: DVVMTQSPLSLPVTLGQPASISCKSSQSIVHSNGNTYLEWYLQKPGQSPQLLIYKVSNRFSGVPDRFSGSGSGTDFTLKISRVEAEDVGVYYCFQGSLVPWAFGGGTKVEIK
Turning to B8, the Kd stood at 447 pM with eTau2 and 382 pM with eTau1b.

B9: humanized IPN002 variant VH3/Vk2 (antibody, V domains shown)
VH: EVQLVESGGALVKPGGSLRLSCAASGFSFSKYGMSWVRQAPGKGLEWVATISSSGSRTYYPDSVKGRFTISRDNAKNTLYLQMNSLRAEDTAMYYCSISWDGAMDYWGQGTTVTVSS
VL: DVVMTQSPLSLPVTLGQPASISCKSSQSIVHSNGNTYLEWYLQKPGQSPQLLVYKVSNRFSGVPDRFSGSGSGTDFTLKISRVEAEDVGTYYCFQGSLVPWAFGGGTKVEIK
With B9, the figures for the equilibrium dissociation constant (Kd) with eTau2 and in the test with eTau1b were 408 pM and 614 pM, respectively.

B10: humanized IPN002 variant VH1/Vk3 (antibody, V domains shown)
VH: EVHLVESGGALVKPGGSLRLSCAASGFSFSKYGMSWVRQAPGKGLEWVATISSSGSRTYYPDSVKGRFTISRDNAKNTLYLQMSSLKSEDTAMYYCSISWDGAMDYWGQGTSVTVSS
VL: DVVMTQSPLSLPVTLGQPASISCKSSQSIVHSNGNTYLEWYLQKPGQSPQLLVYKVSNRFSGVPDRFSGSGSGTDFTLKISRVEAEDVGVYYCFQGSLVPWAFGGGTKVEIK
Regarding B10, the equilibrium dissociation constant (Kd) with eTau2 is 444 pM; with eTau1b, 590 pM.

B11: humanized IPN002 variant VH3/Vk3 (antibody, V domains shown)
VH: EVQLVESGGALVKPGGSLRLSCAASGFSFSKYGMSWVRQAPGKGLEWVATISSSGSRTYYPDSVKGRFTISRDNAKNTLYLQMNSLRAEDTAMYYCSISWDGAMDYWGQGTTVTVSS
VL: DVVMTQSPLSLPVTLGQPASISCKSSQSIVHSNGNTYLEWYLQKPGQSPQLLVYKVSNRFSGVPDRFSGSGSGTDFTLKISRVEAEDVGVYYCFQGSLVPWAFGGGTKVEIK
With B11, the figures for the equilibrium dissociation constant (Kd) with eTau2 and in the test with eTau1b were 471 pM and 689 pM, respectively.

B12: humanized IPN002 variant VH4/Vk4 (antibody, V domains shown)
VH: EVQLVESGGALVKPGGSLRLSCAASGFSFSKYGMSWVRQAPGKGLEWVATISSSGSRTYYPDSVKGRFTISRDNAKNTLYLQMNSLRAEDTAMYYCAISWDGAMDYWGQGTTVTVSS
VL: DVVMTQSPLSLPVTLGQPASISCKSSQSIVHSNGNTYLEWYLQKPGQSPQLLIYKVSNRFSGVPDRFSGSGSGTDFTLKISRVEAEDVGVYYCFQGSLVPWAFGGGTKVEIK
B12: the dissociation constant Kd with eTau2 was 564 pM; with eTau1b, 535 pM.

B13: humanized IPN002 variant VH2/Vk4 (antibody, V domains shown)
VH: EVHLVESGGALVKPGGSLRLSCAASGFSFSKYGMSWVRQAPGKGLEWVATISSSGSRTYYPDSVKGRFTISRDNAKNTLYLQMNSLRAEDTAMYYCSISWDGAMDYWGQGTTVTVSS
VL: DVVMTQSPLSLPVTLGQPASISCKSSQSIVHSNGNTYLEWYLQKPGQSPQLLIYKVSNRFSGVPDRFSGSGSGTDFTLKISRVEAEDVGVYYCFQGSLVPWAFGGGTKVEIK
On to B13, for which the dissociation constant (Kd) in the test with eTau2 was 354 pM; in the test with eTau1b it was 520 pM.

B14: humanized IPN002 variant VH2/Vk2 (antibody, V domains shown)
VH: EVHLVESGGALVKPGGSLRLSCAASGFSFSKYGMSWVRQAPGKGLEWVATISSSGSRTYYPDSVKGRFTISRDNAKNTLYLQMNSLRAEDTAMYYCSISWDGAMDYWGQGTTVTVSS
VL: DVVMTQSPLSLPVTLGQPASISCKSSQSIVHSNGNTYLEWYLQKPGQSPQLLVYKVSNRFSGVPDRFSGSGSGTDFTLKISRVEAEDVGTYYCFQGSLVPWAFGGGTKVEIK
On to B14, for which the Kd in the test with eTau2 was found to be 283 pM; in the test with eTau1b, 229 pM.

B15: humanized IPN002 variant VH4/Vk3 (antibody, V domains shown)
VH: EVQLVESGGALVKPGGSLRLSCAASGFSFSKYGMSWVRQAPGKGLEWVATISSSGSRTYYPDSVKGRFTISRDNAKNTLYLQMNSLRAEDTAMYYCAISWDGAMDYWGQGTTVTVSS
VL: DVVMTQSPLSLPVTLGQPASISCKSSQSIVHSNGNTYLEWYLQKPGQSPQLLVYKVSNRFSGVPDRFSGSGSGTDFTLKISRVEAEDVGVYYCFQGSLVPWAFGGGTKVEIK
Take B15: the Kd came out at 473 pM in the test with eTau2 and 313 pM with eTau1b.

B16: humanized IPN002 variant VH2/Vk1 (antibody, V domains shown)
VH: EVHLVESGGALVKPGGSLRLSCAASGFSFSKYGMSWVRQAPGKGLEWVATISSSGSRTYYPDSVKGRFTISRDNAKNTLYLQMNSLRAEDTAMYYCSISWDGAMDYWGQGTTVTVSS
VL: DVLMTQSPLSLPVTLGQPASISCKSSQSIVHSNGNTYLEWYLQKPGQSPQLLVYKVSNRFSGVPDRFSGSGSGTDFTLKISRVEAEDVGTYYCFQGSLVPWAFGGGTKVEIK
Consider B16, for which the values for the Kd with eTau2 and in the test with eTau1b were 225 pM and 215 pM, respectively.
